Test results as given in patent US6605443 (LUDWIG INSTITUTE FOR CANCER RESEARCH, dated 2003).

Legend:
[1] = molecular target: T1, heteromeric complex of kinase-deficient TβR-II and TβR-I (UniProt P36897 34-503; P37173 23-567); experiment: co-immunoprecipitation with Flag antiserum of 125I-TGF-β1 affinity-labeled receptors, COS cells
T1 construct: whole, on cells; also called TβR-II KD with TβR-I
Protocol: (§1) To obtain insight into the mechanism by which Smad7 exerts its negative role in signaling by TGF-β family members, it was tested whether Smad7, like Smad2 and Smad3 (Zhang et al., *Nature* 383:168–172, 1996; Macías-Silva et al., *Cell* 87:1215–1224, 1996; Nakao et al., 1997), can associate with the TGF-β receptor complex. COS cells transfected with N-terminally Flag-tagged Smad7 in combination with TβR-II (wild-type, WT, or kinase-deficient mutant, KD) and TβR-I (wild-type or kinase deficient mutant) were affinity labeled with ^125I-TGF-β1, and cell lysates were subjected to immunoprecipitation with Flag antiserum against the Flag-epitope in Smad7. Immunoprecipitates were analyzed by SDS-PAGE and FujiX Bio-Imager. Expression of receptors and F-Smad7 after transfection was determined by immunoprecipitation with VPN antibody against TβR-I or DRL antibody against TβR-II on aliquots of cell lysates, and by immunoprecipitation with Flag antibody on lysates [^35S]methionine/cysteine labeled transfected cells. […] In contrast, Smad2 and Smad3 interact stably only with complex of […] (Macías-Silva et al., 1996; Nakao et al., 1997). No interaction was observed between Smad7 and a heteromeric complex of kinase-deficient TβR-II and TβR-I, or with TβR-II alone (FIG. 3). […]

TβR-II alone = molecular target: T2, TβR-II alone (UniProt P37173 23-567, limits assumed); experiment: as above
T2 construct: whole, on cells
Protocol: as §1

T1 sequence (P36897 34-503 limits assumed, chain 1 of 2): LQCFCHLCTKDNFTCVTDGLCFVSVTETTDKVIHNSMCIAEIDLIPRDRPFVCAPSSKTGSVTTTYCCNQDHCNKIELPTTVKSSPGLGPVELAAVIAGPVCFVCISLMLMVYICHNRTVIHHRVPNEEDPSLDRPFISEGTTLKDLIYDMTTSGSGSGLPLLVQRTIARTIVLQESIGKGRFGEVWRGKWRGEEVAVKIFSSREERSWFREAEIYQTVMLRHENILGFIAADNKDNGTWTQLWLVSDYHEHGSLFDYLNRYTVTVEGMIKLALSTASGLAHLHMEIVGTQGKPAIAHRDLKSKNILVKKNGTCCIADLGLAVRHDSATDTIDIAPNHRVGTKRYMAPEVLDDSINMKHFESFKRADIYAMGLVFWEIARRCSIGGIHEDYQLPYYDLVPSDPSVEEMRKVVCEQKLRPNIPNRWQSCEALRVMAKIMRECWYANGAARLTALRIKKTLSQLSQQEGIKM
T1 sequence (P37173 23-567 K277R limits assumed, chain 2 of 2): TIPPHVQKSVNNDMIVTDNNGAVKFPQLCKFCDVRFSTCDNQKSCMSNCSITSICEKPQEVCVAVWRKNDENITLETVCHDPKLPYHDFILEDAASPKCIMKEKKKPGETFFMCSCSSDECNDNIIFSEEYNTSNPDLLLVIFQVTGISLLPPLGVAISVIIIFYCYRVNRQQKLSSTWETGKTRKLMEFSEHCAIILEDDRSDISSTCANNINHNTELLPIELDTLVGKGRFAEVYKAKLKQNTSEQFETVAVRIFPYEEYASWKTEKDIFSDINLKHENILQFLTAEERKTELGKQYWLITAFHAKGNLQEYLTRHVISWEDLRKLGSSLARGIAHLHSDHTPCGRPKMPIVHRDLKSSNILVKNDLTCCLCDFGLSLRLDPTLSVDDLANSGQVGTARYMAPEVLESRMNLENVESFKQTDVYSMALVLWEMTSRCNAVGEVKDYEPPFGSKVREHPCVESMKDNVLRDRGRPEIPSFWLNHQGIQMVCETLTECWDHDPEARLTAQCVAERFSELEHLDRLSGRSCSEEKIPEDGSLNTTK
T2 sequence (P37173 23-567 limits assumed): as the sequence (P37173 23-567 K277R limits assumed, chain 2 of 2) above, with R255K counted along it

- binding result [1]: no binding
- binding result (TβR-II alone): no binding
B1: N-terminally Flag-tagged Smad7 (F-Smad7) (other, not shown: small tags and cut ends)
chain: MFRTKRSALVRRLWRSRAPGGEDEEEGVGGGGGGGELRGEGATDGRAYGAGGGGAGRAGCCLGKAVRGAKGHHHPHPPTSGAGAAGGAEADLKALTHSVLKKLKERQLELLLQAVESRGGTRTACLLLPGRLDCRLGPGAPASAQPAQPPSSYSLPLLLCKVFRWPDLRHSSEVKRLCCCESYGKINPELVCCNPHHLSRLCELESPPPPYSRYPMDFLKPTAGCPDAVPSSAETGGTNYLAPGGLSDSQLLLEPGDRSHWCVVAYWEEKTRVGRLYCVQEPSLDIFYDLPQGNGFCLGQLNSDNKSQLVQKVRSKIGCGIQLTREVDGVWVYNRSSYPIFIKSATLDNPDSRTLLVHKVFPGFSIKAFDYEKAYSLQRPNDHEFMQQPWTGFTVQISFVKGWGQCYTRQFISSCPCWLEVIFNSR
notes: Expressed by transfection in COS cells and immunoprecipitated with Flag antibody; also called F-mSmad7; mSmad7
